Laboratory results reported in patent US9518084B2, “Epitope tag for affinity-based applications” (VIB VZW, priority 2010, dated 2016).

B1: NbSyn1a: Nanobody that specifically binds to α-synuclein, 126 amino acids, SEQ ID NO:24 (protein)
VHH: EVQLVESGGGSVQAGGSLSLACAPSGLNASSYCMGWFRQSPGKEREGVARINGNAGIKTAYADSVKDRFTLSRDNAKNTVYLQMNSLKAEDSAIYFCAAKSSPGYCGGNWDNFGYWGQGTQVTVSS
modifications: Nb_Syn1a
B2: biNbSyn2: bivalent version of NbSyn2 (SEQ ID NO:68) with a GGGGSGGGS linker between both NbSyn2 sequences (protein)
chain: QVQLVESGGGSVQAGGSLRLSCAASGIDSSSYCMGWFRQRPGKEREGVARINGLGGVKTAYADSVKDRFTISRDNAENTVYLQMNSLKPEDTAIYYCAAKFSPGYCGGSWSNFGYWGQGTQVTVSSGGGGSGGGSQVQLQESGGGSVQAGGSLRLSCAASGIDSSSYCMGWFRQRPGKEREGVARINGLGGVKTAYADSVKDRFTISRDNAENTVYLQMNSLKPEDTAIYYCAAKFSPGYCGGSWSNFGYWGQGTQVTVSSHHHHHH
modifications: Nanobody biNbSyn2

Key:
[1] = test system: EPEA (SEQ ID NO:1)-tagged Rev protein; assay: In vivo detection of EPEA-tagged Rev in transfected HeLa cells by confocal microscopy; format: cell-based, HIV; conditions: nanobody fused to mKO1 or GFP, GYQDYEPEA and EPEA tags
Excerpt: In another set of experiments, we explored the use of the EPEA (SEQ ID NO:1) tag to detect/visualize the expression of recombinant proteins within a (living) eukaryotic cell. […] Cells that are double-transfected with Rev-[sequence] (SEQ ID NO:10) or Rev-[sequence]
The two different tags [sequence] (SEQ ID NO:2) and EPEA (SEQ ID NO:1) were C-terminal fused to Rev by PCR using Takara Ex Taq polymerase (TAKARA BIO INC).
HeLa, human epithelial cells were maintained using standard procedures until confluent in DMEM medium with 10% fetal calf serum. For transfection of plasmid DNA in HeLa, cells were harvested by a Trypsin/EDTA treatment, counted and plated onto glass bottom microwell dishes (MatTek corporation). Transfections were preformed according to manufacturer's manual: the 4×10^5 cells were seeded in a 35 mm dish. […]
Transfected HeLa cells were imaged with a laser scanning SP5 confocal microscope (Leica Microsystems) equipped with an AF 6000 microscope and an AOBS, using a HCX PL APO×63 (NA 1.2) water immersion objective magnification. GFP was monitored with the Ar laser using the 488-nm line for excitation, and emission was detected between 492 and 570 nm. mKusabira orange fluorescent protein (mKO) was imaged using the DPSS-561 nm laser for excitation, and emission was detected between 570 and 675 nm.

[2] = test system: Nb458-gaaEPEA (SEQ ID NO:8); assay: Solid phase ELISA, bivalent versus monovalent NbSyn2 alkaline phosphatase conjugate; format: binding; conditions: alkaline phosphatase conjugates, dilutions 1/250 to 1/4000, OD405
Nb458-gaaEPEA (SEQ ID NO:8), sequence (as listed by the source): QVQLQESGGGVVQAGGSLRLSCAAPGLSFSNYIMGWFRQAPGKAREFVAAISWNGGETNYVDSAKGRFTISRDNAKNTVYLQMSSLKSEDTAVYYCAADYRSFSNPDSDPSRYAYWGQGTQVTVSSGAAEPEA

Row | Molecule | Recognition of tagged Rev in double-transfected cells (colocalization in the nucleus) [1] | Sensitivity of ELISA detection compared with monovalent NbSyn2-AP conjugate [2]
1 | B1 | recognized in vivo | –
2 | B2 | – | sensitivity of detection increases
